Experimental data published in patent publication USRE46211.

Legend:
[1] = target: HP8/HEVIN, extracellular matrix protein (UniProt Q14515); assay: binding of COS-7 expressed antibody to HP8; method and unit not given
[2] = target: mouse myosin IIb (myosin heavy chain IIb), 200 kDa skeletal muscle protein (mouse) (UniProt Q5SX39); assay: cell-based or functional assay
Chain of UniProt Q5SX39 (Q5SX39 whole entry): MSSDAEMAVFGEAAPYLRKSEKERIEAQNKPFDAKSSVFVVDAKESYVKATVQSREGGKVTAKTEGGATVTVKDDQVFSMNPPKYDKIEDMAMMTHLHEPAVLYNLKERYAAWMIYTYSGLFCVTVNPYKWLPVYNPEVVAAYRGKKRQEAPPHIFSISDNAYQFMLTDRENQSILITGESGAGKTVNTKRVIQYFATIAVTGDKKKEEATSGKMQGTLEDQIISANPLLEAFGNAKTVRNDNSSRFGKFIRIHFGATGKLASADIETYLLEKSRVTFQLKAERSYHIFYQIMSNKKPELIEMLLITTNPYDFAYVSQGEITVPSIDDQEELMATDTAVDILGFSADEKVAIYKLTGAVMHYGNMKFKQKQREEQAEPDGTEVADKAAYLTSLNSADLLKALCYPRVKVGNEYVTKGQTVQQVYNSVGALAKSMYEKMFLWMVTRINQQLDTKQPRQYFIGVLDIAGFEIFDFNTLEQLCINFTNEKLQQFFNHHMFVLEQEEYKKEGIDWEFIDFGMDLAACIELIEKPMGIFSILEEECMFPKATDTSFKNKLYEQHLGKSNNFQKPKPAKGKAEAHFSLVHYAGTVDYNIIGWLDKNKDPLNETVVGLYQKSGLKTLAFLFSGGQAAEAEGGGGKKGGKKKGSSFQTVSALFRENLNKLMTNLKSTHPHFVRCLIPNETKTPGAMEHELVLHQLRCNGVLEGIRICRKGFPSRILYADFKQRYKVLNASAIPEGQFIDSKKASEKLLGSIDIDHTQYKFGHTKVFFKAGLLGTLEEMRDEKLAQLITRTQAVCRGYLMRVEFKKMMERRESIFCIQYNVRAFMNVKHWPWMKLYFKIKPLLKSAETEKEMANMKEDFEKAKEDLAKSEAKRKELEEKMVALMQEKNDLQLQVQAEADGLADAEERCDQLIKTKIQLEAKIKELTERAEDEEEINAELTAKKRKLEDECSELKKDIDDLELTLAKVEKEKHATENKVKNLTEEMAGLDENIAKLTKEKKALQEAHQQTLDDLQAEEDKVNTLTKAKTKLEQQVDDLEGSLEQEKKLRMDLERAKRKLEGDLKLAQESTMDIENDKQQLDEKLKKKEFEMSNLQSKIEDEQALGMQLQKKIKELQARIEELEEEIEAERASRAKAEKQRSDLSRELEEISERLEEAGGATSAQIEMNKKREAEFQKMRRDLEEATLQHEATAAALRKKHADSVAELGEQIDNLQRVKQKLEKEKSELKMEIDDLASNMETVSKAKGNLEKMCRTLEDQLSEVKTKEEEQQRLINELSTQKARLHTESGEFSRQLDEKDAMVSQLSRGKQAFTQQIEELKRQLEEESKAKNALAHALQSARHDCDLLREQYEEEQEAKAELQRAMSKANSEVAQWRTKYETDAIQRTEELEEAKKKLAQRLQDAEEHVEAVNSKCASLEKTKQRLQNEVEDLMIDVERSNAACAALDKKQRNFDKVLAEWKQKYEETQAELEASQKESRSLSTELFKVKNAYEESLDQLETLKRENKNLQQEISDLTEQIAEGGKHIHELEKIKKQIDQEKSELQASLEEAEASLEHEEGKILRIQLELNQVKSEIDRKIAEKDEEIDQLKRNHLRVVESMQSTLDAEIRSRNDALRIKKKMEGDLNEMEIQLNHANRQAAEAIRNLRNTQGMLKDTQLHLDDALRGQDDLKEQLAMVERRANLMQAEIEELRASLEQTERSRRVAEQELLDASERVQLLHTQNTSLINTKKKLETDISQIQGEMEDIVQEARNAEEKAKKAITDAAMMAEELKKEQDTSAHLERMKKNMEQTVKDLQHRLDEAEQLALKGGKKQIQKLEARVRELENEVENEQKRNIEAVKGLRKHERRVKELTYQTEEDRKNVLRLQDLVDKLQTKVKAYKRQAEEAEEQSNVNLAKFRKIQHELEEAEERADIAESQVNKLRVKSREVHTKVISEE

Chain of UniProt Q14515 (Q14515 17-664 limits assumed): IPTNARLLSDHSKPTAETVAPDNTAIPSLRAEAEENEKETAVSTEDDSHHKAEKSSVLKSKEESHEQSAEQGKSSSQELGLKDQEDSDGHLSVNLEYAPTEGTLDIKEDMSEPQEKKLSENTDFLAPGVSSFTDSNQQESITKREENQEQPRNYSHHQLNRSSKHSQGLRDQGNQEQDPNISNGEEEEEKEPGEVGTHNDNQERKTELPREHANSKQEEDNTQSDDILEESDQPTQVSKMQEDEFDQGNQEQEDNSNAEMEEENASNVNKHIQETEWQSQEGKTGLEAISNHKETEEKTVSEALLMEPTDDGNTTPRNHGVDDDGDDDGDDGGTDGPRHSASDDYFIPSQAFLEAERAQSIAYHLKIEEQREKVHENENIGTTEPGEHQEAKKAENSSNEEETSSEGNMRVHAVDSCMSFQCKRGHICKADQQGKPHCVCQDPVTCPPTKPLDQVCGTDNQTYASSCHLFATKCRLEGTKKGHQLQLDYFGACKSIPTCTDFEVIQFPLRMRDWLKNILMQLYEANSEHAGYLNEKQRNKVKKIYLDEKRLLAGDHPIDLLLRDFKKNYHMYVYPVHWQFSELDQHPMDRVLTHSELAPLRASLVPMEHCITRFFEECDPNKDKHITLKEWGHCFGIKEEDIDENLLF

Substance | Antibody Specificity, HP8 [1] | localization of intravenously injected scFv fragments in tissues of FVB mice (histology with anti-his6 antibody) [2] [%]
mAb 3E10 VH31 mutant heavy chain (D to N at residue 31, H CDR1) with native light chain (antibody) | 1.3 | 
mAb 3E10 VH31 mutant heavy chain with Vk residue 94 mutant light chain (F to D, L CDR3) (antibody) | 0.2 | 
mAb 3E10 scFv containing 3E10 VH and VkIII (Vk placed N-terminal of VH) |  | 20

Now from value to substance:

Antibody Specificity, HP8 [1] | localization of intravenously injected scFv fragments in tissues of FVB mice (histology with anti-his6 antibody) [2] [%] | Substance
2.76 |  | mAb 3E10 VH31 mutant heavy chain with Vk residue 32 mutant light chain (Y to F, L CDR1) (antibody)
0.26 |  | mAb 3E10 VH31 mutant heavy chain with Vk residue 27C mutant light chain (S to D, L CDR1) (antibody)
2.02 |  | recombinant mAb 3E10, native heavy chain with native (anti-dsDNA kIII) light chain, expressed in COS-7 cells (antibody)
1.21 |  | mAb 3E10 VH31 mutant heavy chain with Vk residue 92 mutant light chain (R to N, L CDR3) (antibody)
